Reference: patent US20230374475A1

How the values were obtained:
[1] = target: T1, TgoRTxo (exonuclease-deficient engineered Tgo reverse transcriptase) (Thermococcus gorgonarius) (UniProt P56689); conditions: RT efficiency without KPCNA; Mg, dNTPs; about 45% with 1 uM KPCNA
T1 sequence: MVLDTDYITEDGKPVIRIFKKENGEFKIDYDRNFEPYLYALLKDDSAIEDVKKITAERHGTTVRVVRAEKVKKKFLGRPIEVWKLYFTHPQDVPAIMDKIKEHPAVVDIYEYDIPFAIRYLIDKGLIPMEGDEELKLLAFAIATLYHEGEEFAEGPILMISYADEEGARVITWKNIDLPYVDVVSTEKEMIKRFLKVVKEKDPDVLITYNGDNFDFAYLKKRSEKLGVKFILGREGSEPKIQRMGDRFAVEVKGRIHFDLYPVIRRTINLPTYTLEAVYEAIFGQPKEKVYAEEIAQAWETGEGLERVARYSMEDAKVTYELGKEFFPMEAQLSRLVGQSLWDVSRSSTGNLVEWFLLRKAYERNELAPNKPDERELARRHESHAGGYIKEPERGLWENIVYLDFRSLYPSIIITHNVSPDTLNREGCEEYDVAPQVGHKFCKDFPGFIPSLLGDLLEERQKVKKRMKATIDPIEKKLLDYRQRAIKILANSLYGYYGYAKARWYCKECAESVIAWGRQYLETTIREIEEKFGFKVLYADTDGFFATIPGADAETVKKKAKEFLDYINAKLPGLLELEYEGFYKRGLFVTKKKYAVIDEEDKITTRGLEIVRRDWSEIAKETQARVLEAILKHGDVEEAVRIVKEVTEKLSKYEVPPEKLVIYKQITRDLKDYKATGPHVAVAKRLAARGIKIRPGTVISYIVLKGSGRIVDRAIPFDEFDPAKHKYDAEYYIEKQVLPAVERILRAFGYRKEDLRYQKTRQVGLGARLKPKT

[2] = target: engineered T. gorgonarius reverse-transcriptase lacking proof reading activity (3'-5' exonuclease) (TgoRTxo) (Thermococcus gorgonarius (engineered)) (UniProt P56689); experiment: cell-based or functional assay

~600 nt RNA template with DNA primer
activity [1]: 10%

T. kodakarensis proliferating cell nuclear antigen (KPCNA) (from UniProt Q5JF32 2-249)
RT efficiency of TgoRTxo at 3.5 uM KPCNA compared to no KPCNA [2]: 3 fold
efficiency of reverse transcription (fold increase, KPCNA raised from 0 to 1 uM) [2]: 4 fold
reverse transcriptase efficiency of TgoRTxo in the absence of KPCNA (baseline) [2]: 10%
reverse transcriptase efficiency of TgoRTxo with 1 uM KPCNA [2]: 45%
